Laboratory results as given in patent US20030157712.

Molecular target: GST-EphB1cy, self-phosphorylated in vitro (+ATP) (UniProt P54762)
Sequence (P54762 564-984): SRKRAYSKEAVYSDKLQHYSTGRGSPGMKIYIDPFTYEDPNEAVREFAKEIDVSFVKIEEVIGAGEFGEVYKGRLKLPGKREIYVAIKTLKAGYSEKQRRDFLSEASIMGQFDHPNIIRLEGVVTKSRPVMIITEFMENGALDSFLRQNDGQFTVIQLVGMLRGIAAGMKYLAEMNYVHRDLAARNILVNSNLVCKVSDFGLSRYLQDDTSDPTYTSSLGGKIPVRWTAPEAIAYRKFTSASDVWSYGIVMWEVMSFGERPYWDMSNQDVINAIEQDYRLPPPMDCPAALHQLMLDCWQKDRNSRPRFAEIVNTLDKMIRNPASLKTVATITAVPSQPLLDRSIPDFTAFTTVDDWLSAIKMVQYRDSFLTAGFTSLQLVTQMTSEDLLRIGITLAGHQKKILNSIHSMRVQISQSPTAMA

## purified recombinant LMW-PTP (A isoform)
  in vitro tyrosine phosphorylation of LMW-PTP: EphB1 receptor tyrosine kinase phosphorylates LMW-PTP in vitro
